Changes are numbered by the printed parent chain. Values joined by “and” are separate entries in the source; they are usually repeats but may differ in a detail not shown here. Equal values may be shown once. Read-outs that look alike come from different tables or passages of the source. Where no end group is shown, it is not given here.

For assay [1], the target named is T1, p2S (p2 peptide biotinylated through its free cysteine) (human, also: biotinylated (maleimide PEO2-biotin) on one of the two Cys, which one not given here).
T1 construct: The peptide has two cysteines; also called b-p2S
T1 peptide: RPRYACCPGWKRT
Put plainly: SPR (BIAcore-2000), IgG injected over immobilized p2S peptide. Background: Surface plasmon resonance follows binding to a sensor surface in real time, without labels.

Assay [2] addresses T1, p2S (p2 peptide biotinylated through …). Described as above.
The target of assay [3] is EGFL7 coated on plates in the cell adhesion assay (human or mouse, not told apart at this place). Put plainly: cell-based or functional assay.
The target in assay [4] is T2, truncated human EGFL7 (residues 1-182) (human, UniProt Q9UHF1 24-182).
T2 construct: Expressed in CHO cells; The range as printed starts at Met 1; also called truncated EGFL7; truncated huEGFL7
T2 chain: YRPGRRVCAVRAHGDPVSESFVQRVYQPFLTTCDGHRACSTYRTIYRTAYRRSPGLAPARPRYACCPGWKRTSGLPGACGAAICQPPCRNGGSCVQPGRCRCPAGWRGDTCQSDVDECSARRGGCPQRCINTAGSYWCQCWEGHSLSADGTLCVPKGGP
Put plainly: phage ELISA on truncated huEGFL7 immobilized on a microtiter plate. In general terms: An ELISA detects its analyte on a solid surface through an enzyme-linked reagent.

The target of assay [5] is T3, mouse EGFL7 (mEGFL7-CB-His) (mouse, UniProt Q9QXT5 22-275).
T3 sequence: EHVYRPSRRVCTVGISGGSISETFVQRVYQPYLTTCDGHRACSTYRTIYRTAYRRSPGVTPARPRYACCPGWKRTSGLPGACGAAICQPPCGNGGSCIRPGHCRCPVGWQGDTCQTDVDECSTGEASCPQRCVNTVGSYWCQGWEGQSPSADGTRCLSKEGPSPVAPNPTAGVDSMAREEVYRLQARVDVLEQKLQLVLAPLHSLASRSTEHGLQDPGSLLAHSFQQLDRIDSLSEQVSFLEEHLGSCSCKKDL
Put plainly: cell-based or functional assay.

The target of assay [6] is T4, human EGFL7 (EGFL7-CB-His) (human, UniProt Q9UHF1 23-273, limits assumed).
T4 sequence: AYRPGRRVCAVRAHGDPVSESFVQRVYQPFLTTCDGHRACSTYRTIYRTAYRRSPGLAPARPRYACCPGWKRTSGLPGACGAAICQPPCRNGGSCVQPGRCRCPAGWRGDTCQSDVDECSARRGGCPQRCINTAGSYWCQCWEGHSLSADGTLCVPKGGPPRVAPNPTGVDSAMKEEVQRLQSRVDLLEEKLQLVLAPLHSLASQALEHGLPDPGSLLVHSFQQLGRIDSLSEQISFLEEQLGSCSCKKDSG
Put plainly: cell-based or functional assay.

The target of assay [7] is T1, p2S (p2 peptide biotinylated through …). Put plainly: SPR (Biacore), binding to p2S, KD relative to ch4F11.
The target in assay [8] is T4, human EGFL7 (EGFL7-CB-His). Put plainly: cell-based or functional assay. The source holds these as a separate data set.
The target in assay [9] is T3, mouse EGFL7 (mEGFL7-CB-His). Put plainly: SPR (Biacore), IgG over immobilized mEGFL7-CB at 37 C.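 Further: IgG injected as twofold series from 0.5 to 1000 nM, 3 min association and 3.5 min dissociation, reference flow cell subtracted, kinetics fitted to 1:1 Langmuir model.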
The target of assay [10] is T5, p5 peptide of EGFL7 (human).
T5 construct: also called Peptide P5
T5 peptide: RACSTYRTIYRTA
Put plainly: SPR (Biacore), IgG over immobilized P5 peptide at 37 C, n = 3.

Assay [11] concerns the target T2, truncated human EGFL7 (residues 1-182). Put plainly: phage ELISA on truncated huEGFL7 immobilized on a microtiter plate.
Assay [12] addresses T5, p5 peptide of EGFL7. Put plainly: SPR (Biacore), IgG over immobilized P5 peptide at 37 C, n = 2.
Assay [13] addresses T3, mouse EGFL7 (mEGFL7-CB-His). Put plainly: SPR (Biacore), IgG over immobilized mEGFL7-CB at 37 C, n = 2.
The target in assay [14] is T5, p5 peptide of EGFL7. Put plainly: SPR (Biacore), IgG over immobilized P5 peptide at 37 C.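 Further: IgG variants injected at 0.5–1000 nM (2-fold series), 3 min association and 3.5 min dissociation, reference flow cell subtracted, kinetics fitted with a 1:1 Langmuir model.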
Assay [15] addresses T3, mouse EGFL7 (mEGFL7-CB-His). Put plainly: cell-based or functional assay. The source holds these as a separate data set.

B1: 4F11.v14 IgG (antibody, name in Kabat numbering, V domains shown)
VH: EIQLVESGGGLVQPGGSLRLSCAASGHTFTTYGMSWVRQAPGKGLEWMGWINTHSGVPTYADDFKGRFTFSLDTSASTAYLQMNSLRAEDTAVYFCARLGSSAVDYWGQGTLVTVSS
VL: DIQLTQSPSSLSASVGDRVTITCKASQSVDYDGDSYMSWYQQKPGKAPKLLIYGASNLESGVPSRFSGSGSGTDFTLTISSLQPEDFATYYCQQNNEDPYTFGQGTKVEIKR
notes: IgG; Kabat numbering
In general, Kd refers to the constant that tells how readily two partners part at equilibrium. A word on the koff: it is the rate constant with which the complex falls apart. A lower koff goes with slow dissociation. In general, kon refers to a measure of how fast the partners come together. In the case of B1, in assay [1], the dissociation constant Kd is 7 nM, the koff was found to be 0.000984 s⁻¹ and the kon stood at 141000 M⁻¹ s⁻¹.

B2: 4F11.v6 IgG (antibody, V domains shown)
VH: B1 VH with I2V, M48V, F70I, L72R, T74N, A76K, S77N, A79V, F95Y
VL: DIQMTQSPSSLSASVGDRVTITCKASQSVDYDGDSYMSWYQQKPGKAPKLLIYGASYLESGVPSRFSGSGSGTDFTLTISSLQPEDFATYYCQQNNEDPYTFGQGTKVEIK
notes: IgG; Kabat numbering
For B2, in [2], the Kd came to 19.5 nM, the off-rate (koff) was determined as 0.0024 s⁻¹ and the association rate constant (kon) came to 123000 M⁻¹ s⁻¹. Moreover, the “Cell Adhesion Assay Variant/ch4F11 (fold)” value in [3] was 4.01 fold.

B3: phage displaying 4F11.v1 Fab (Fab, V domains shown)
VH: B1 VH with I2V, M48V, F70I, L72R, T74N, A76K, S77N, A79L, F95Y
VL: B1 VL with L4M
notes: Monovalent Fab-g3 display on M13 phage; heavy chain VH-CH1 fused to minor coat protein P3; also called 4F11.v1 phage; 4F11-graft Fab on phage
On to B3, for which, in assay [4], the binding result was “binds”.

B4: 4F11.v16 IgG (antibody, name in Kabat numbering, V domains shown)
VH: B1 VH
VL: B1 VL with L4M
notes: IgG; Kabat numbering
B4: in assay [1], the dissociation constant Kd amounted to 16.8 nM, the koff turned out to be 0.00165 s⁻¹ and the kon came to 98100 M⁻¹ s⁻¹.

B5: 4F11.v10 IgG (antibody, V domains shown)
VH: B1 VH with I2V, M48V, F70I, L72R, T74N, A76K, S77N, A79V, F95Y, S102Y
VL: B2 VL
notes: IgG; Kabat numbering
Take B5: in assay [2], the Kd was 27.4 nM, the off-rate constant (koff) stood at 0.00197 s⁻¹ and the on-rate constant (kon) worked out at 72000 M⁻¹ s⁻¹. Moreover, the “Cell Adhesion Assay Variant/ch4F11 (fold)” value in assay [3] amounted to 4.38 fold.

B6: 4F11.v17 IgG (antibody, V domains shown)
VH: B1 VH with I2V, M48V, F70I, T74N, A76K, S77N, F95Y, S102Y
VL: B1 VL with L4M, D32S, N57Y, L58R, D98E
notes: IgG; Library 1 framework; also called hu4F11.v17
As for B6, in assay [5], the “IC50 (read off the curve), HUVEC adhesion” value was approximately 10 µg/mL. In addition, the “Cell Adhesion Assay (human EGFL7) Variant/ch4F11 (fold)” value in assay [6] worked out at 0.86 fold. Moreover, the “Fold change in KD variant/(chimera)” value in assay [7] came out at 0.93 fold.

B7: 4F11.v22 IgG (antibody, V domains shown)
VH: B1 VH with F70I, T74N, A76K, S102Y
VL: B1 VL with L4M, D32S, N57Y, L58R, D98E
notes: IgG; Library 2 framework
For the molecule B7, the “Cell Adhesion Assay (human EGFL7) Variant/ch4F11 (fold)” value in assay [6] worked out at 0.81 fold. Also, in [7], the “Fold change in KD variant/(chimera)” value came to 1 fold.

B8: 18F7.v6 IgG (antibody, V domains shown)
VH: EVQLVESGGGLVQPGGSLRLSCAASGYTFIDYYMNWVRQAPGKGLEWVGDINLDNGGTHYNQKFKGRFTISRDKSKNTAYLQMNSLRAEDTAVYYCAREGVYHDYDDYAMDYWGQGTLVTVSS
VL: DIQMTQSPSSLSASVGDRVTITCRTSQSLVHINGITYLHWYQQKPGKAPKLLIYRVSNRFSGVPSRFSGSGSGTDFTLTISSLQPEDFATYYCGQSTHVPLTFGQGTKVEIKR
notes: IgG; also called hu18F7.v6
Consider B8, for which the “IC50, HUVEC adhesion [left panel]” value in assay [8] came out at 5.62 nM. In [9], this molecule gave a dissociation constant (Kd) of 0.408 nM, a koff of 2.04e-05 s⁻¹ and a kon of 50000 M⁻¹ s⁻¹. Besides, in the assay with p5 peptide of EGFL7 [10], the affinity, expressed as Kd, was 3.21 nM; the off-rate constant (koff) came out at 0.000389 s⁻¹; the on-rate (kon) stood at 121000 M⁻¹ s⁻¹.

B9: phage displaying 18F7-graft Fab (Fab, V domains shown)
VH: B8 VH with K74N, A79L
VL: B8 VL with G94S
notes: Monovalent Fab-g3 display on M13 phage; heavy chain VH-CH1 fused to P3; also called 18F7-graft phage
Consider B9, for which the binding result in [11] is on record as “binds”.

B10: 18F7.v6C IgG (antibody, V domains shown)
VH: B8 VH with G56S
VL: DIQMTQSPSSLSASVGDRVTITCRTSQSLVHINGITYLHWYQQKPGKAPKLLIYRVSNRFSGVPSRFSGSGSGTDFTLTISSLQPEDFATYYCGQSTHVPLTFGQGTKVEIK
notes: IgG; Variant of 18F7.v6
In the assay with p5 peptide of EGFL7 [12], B10 registered a dissociation constant Kd of 4.13 nM, an off-rate (koff) of 0.000502 s⁻¹ and an association rate constant (kon) of 124000 M⁻¹ s⁻¹. For the same molecule, in assay [13], the Kd is 2.4 nM, the off-rate (koff) is 8.1e-05 s⁻¹ and the kon is 36000 M⁻¹ s⁻¹.

B11: 18F7.v6B IgG (antibody, V domains shown)
VH: B8 VH with N55S
VL: B10 VL
notes: IgG; Variant of 18F7.v6
In the assay with p5 peptide of EGFL7 [12], B11 came in with a Kd of 3.22 nM, a koff of 0.000638 s⁻¹ and an on-rate constant (kon) of 196000 M⁻¹ s⁻¹. Moreover, in assay [13], the Kd is 2.68 nM, the koff was 0.000174 s⁻¹ and the kon stood at 79000 M⁻¹ s⁻¹.

B12: 18F7.v6A IgG (antibody, V domains shown)
VH: B8 VH
VL: B10 VL with N33S
notes: IgG; Variant of 18F7.v6
For B12, in the assay with p5 peptide of EGFL7 [12], the Kd turned out to be 3.74 nM, the koff was determined as 0.00137 s⁻¹ and the on-rate constant (kon) is 373000 M⁻¹ s⁻¹. Also, in assay [13], the affinity, expressed as Kd, was 7.29 nM; the off-rate (koff) was found to be 0.000404 s⁻¹; the kon was determined as 55000 M⁻¹ s⁻¹.

B13: 18F7.v6K IgG (antibody, V domains shown)
VH: B8 VH with G56S
VL: B8 VL with G34A
notes: IgG; also called hu18F7.v6k; h18F7.v6k
As for B13, in the assay with p5 peptide of EGFL7 [14], binding was put at a Kd of 5.2 nM, the koff was found to be 0.000662 s⁻¹ and the kon turned out to be 127000 M⁻¹ s⁻¹. In addition, the “IC50, HUVEC adhesion [right panel]” value in assay [15] is 6.37 µg/ml and 42 nM. In addition, in assay [9], the equilibrium dissociation constant (Kd) turned out to be 1.6 nM, the koff stood at 4.54e-05 s⁻¹ and the kon was 28000 M⁻¹ s⁻¹.

(Values after patent US20140051120A1 (Genentech, published 2014).)
